The labels stand for the following.
B1: Nucleolar protein 3 (Rattus norvegicus (Rat)), Q62881 (parent)
chain: MGNMQERPSETIDRERKRLVETLQADSGLLLDALVARGVLTGPEYEALDALPDAERRVRRLLLLVQSKGEAACQELLRCAQQTVSMPDPAWDWQHVGPGYRDRSYDPPCPGHWTPEAPSSGTTCPGLPRASEEEEIGGPEDSEAVQPRTPEEPELEAEATKGDEPDLEQEMEPEPEPEVEPEPEPEPEPEPEPEPEPEPEPEPEREPDFQEGDESEGCENT
partner: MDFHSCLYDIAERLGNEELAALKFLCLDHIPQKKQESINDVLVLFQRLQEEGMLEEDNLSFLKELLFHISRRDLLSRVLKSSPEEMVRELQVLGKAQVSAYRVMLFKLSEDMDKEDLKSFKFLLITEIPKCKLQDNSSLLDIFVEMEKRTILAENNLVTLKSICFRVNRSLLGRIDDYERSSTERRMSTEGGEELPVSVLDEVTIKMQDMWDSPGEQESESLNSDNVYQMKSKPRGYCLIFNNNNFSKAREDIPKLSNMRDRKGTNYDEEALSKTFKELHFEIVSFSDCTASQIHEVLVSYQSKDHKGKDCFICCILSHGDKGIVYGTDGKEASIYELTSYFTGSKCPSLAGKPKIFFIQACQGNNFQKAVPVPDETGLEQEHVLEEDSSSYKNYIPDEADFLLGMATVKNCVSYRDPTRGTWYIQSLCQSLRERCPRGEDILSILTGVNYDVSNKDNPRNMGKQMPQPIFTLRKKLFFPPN

Variants of B1 are the subject of this test. To be noted: with casp8_rat Casp8, Q9JHX4.
On to T149D, for which the “effect of a mutation on the interaction” value is on record as “disrupting interaction”.

The record behind these values is IntAct's records for PubMed 19001025.
